Laboratory results: a protein production outcome set (Wang et al. 2014)

Assay: label from the status in PepcDB records
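Note: failed if final PepcDB status was selected cloned or expressed and not failed if soluble or beyond.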

Sequence	protein production
MIFLVYDILLLLLSPLILIHHAWRTVSRGRSFAGFGERFGCIAPESLARVAGKGPIWVHAVSVGETMAVKPLLRELKRRFPERPLVLSSVTETGRSVAVTIPEADLVVYFPFDFGFAVARALRLVAPSLVIVVETEIWPNFLRHARRTGIPSVMVNGRISDRSFPRYLRFSRFFAPILNNLSALCMQSSEDARRIIAVGAPAERVHVTRNLKYDLPVRSLTPAERQELLCSYRLPAGALIITAGSTHAGEEEVVADIYARLAGERSDLFLVLVPRHPERAVEVGTLLEGKGIPFVRRSALDKVQEQPRGGVLLVDTIGELMKLYALSDVVFVGGSLVPVGGHNLLEPASVGAPVLFGPHMHNFREITALVLGAGAGEQVNDHGELEATLRRLLADEPARRSMGENGIRLMADQGGAAARHLEIIGPLIERGSEVARLEHHHHHH	not failed
MIFMHPKTLEILKMFEEINKIPRRSKNEEKLALWLMEWAKNHNFEAKTDALNNVLIKVPPTPGYENSPAIVLQGHMDMVCEKCRDSGHDFSKDPIICIYEGDWLRGDGTSIGADNGIALAIGLVLAESGIKGEIEHPPLELLFTVDEETGLTGASGLEEDFFEGRILLNLDSEDEGIFILGCAGGQNSRIFLPLQWESFDYGKGSGFGLFRISAEGLEGGHSGVEIHRQRANGIQLLARMLSALKEKVGKENLRLVFFSGGSVHNAIPNYAEAFIVLSRNNEKQAEDFVSGLQKSFRGEYAVSDPEITLQLKEVENGIIFEASGGKITRKEVPSDRVFSVETEEKLYGVLLGMPHGVHRVSDTIPGLVETSNNLATVRTGEKEVRIVSSQRSSVMSRLAEVTEKVETVAKLAGARVEHECGYPAWEPDLQSGLLMKCRHAYSGTFGKEPEIKVVHAGLECGVIGSKCECIEMISFGPTIKDPHSPAERVYIPSIEKVWVFLENLMKSYRLEHHHHHH	not failed
MIGFLTDWGLKSHYVGVAKAVIKRINPSAEIIDITHEVEPFNVRKASHVLYRASLDFPPSTVFLVVVDYGVGTSRKAIVMKTKNDQYFVAPDNGVLTVVAEEYGVAEIREIENRELFYKKNPSFTFHGRDIFAPVAAHLDMGLPLERVGDRLLSYEVLKMRKPVVENEKVIGEVAIVDTFGNVSTNIPFDLFLKLSVDFDDVVRVRVGRKEFKAAVAKAFGDVDTGELLVHPDSAGFLEIAVNLGDASQVLSVKEGDEIEICR	not failed
MIGGSIISSNLLIRIFHGSCRKIIAFLFTILSLTLISGVLIYFVEGETGGFISRSSSVYWAITTLLTTGYGDTVLQTNFGRLVASVVKVLGFSIIVAPIVIIITEIYKSLSETSRKTKSLTISPFPLIWRYLNTQYFRML	failed
MIGHRPLLAALERGHCASYTFVMKRRNFFRFSALGLLALAGGGLYARRSSASAYYSGPISDHFDGVRFFNPGGTPPGNFMGLLKWRFNGERATWPETYPSPFPFAKPEARIDGRDMRVTFVGHASFLIQTAGLNILVDPVWSQRTSPLSFAGPKRVNPPGIRFEDLPPIDLVLVTHNHYDHLDMETLKRLHVAHKPLFITPLGNDAVIRTGVEAARIKVGDWGDVVETGSVKIHFEPCHHWSARGLNDRSMALWAAFVIETPGGKIYHIGDTGFHEGLNYGAARKKHGEFRLANLPFGAYEPRWFMKGQHQNPAEAVEGMRLCGAAHVCGHHWGTVQLTDEAVDAPLAALKAALTEQGVEESRFRPMRPGEVFDVPSA	failed
MIGKTVIVGSKNMKEKILKFITSKFFVLGIQLLATIAVVYFTFKLDLVPTKYLIAGIVVLALLLAGFFGIIYSSEQKIKKGLSSKRGIVTKIISLLTSIILIAGCTYISRGNNFIENVSNATGQEYVVSVISLKNGKITKLKDLDSSKKIGVSYEKDTVTIAEALKDLDTEIGDHEYTKYDNYASLADALYEGKVDAIVVGEQYRTMLQTNHEEFNDVTKVLKSYAYDAKMEVTTKQTDVTENAFSIYVTGIDVYGSLKTVSRSDVNLIVTVNPKTKQILMTSIPRDCQINLHKNGKMDKLTHTGIYGTSETINTIQDLLEMKINYFARTNFSGMTNIVDALGGITVNSSEAFETLHGNYQISEGLNEMDGDKALCFVRERKRLKRGDFARGENQQKVLKAMLDKAMSPKIITNFNNILSAVEGCFETDMSDKEIKSLINMQLNDMADWKIINVQIEGEYQLMDDTFSMKGTNSDVMIPFESHIERVRELINKVEEGKEIKDSELKGLTH	failed
MIGLSKSRGALSMENQKMPEYETIRAAVAGEKWAVEKVVECYKDEIDRLSTVAVRQPDGSTKQEINEDMRQSITKKLIEALPQFPLEEMEKGNVRLEHHHHHH	not failed
MIGPMWSDVIDLRDFYATSQGQLTRRLIGRSLRALWPEVRGCRVLGLGYAVPFLQPFADEAERVVAMMPAPMGAVRWPSVGPVQGALADELELPLPDRSIDRLLLIHGLEFADHAHGLLRECWRVLADNGRLMVVVPNRRATWARMERSPFANGQPYSEGQLTRLLRDRLFTPIASSTALFMPPSRSRMVMGSASLLEQIGCRLFPAFGGVVVVDCAKQIAAPVLRSAVASRRVYVGVGLSQPLQGSSRAGFKNPAPFTGVDGS	failed
MIGREGVTTLRFTVKQQFITHKHTLYGVAAILLWGSLMALTRRVAEEFSPIGGAALIYTVSTLFLLFAMGMPRLKAGSSRYILIGGALFVSYEICLALALGMASDRLQAIEMSVINYLWPALTVLIAVLLSQRAVSFWVYPSVGLAFAGVAWTIVAEQGISLADFSARIATNPAVYAMALTGAFIWAIYCNVTQRLARGQNAIVLFFAATAATLWLQYALSNEPALSFTGSSMGTLLLTGIVMGSGYALWNVAILRGNMLLLATLSYFTPVISTLFSSLILGVVLGLSFWQGVIMVTFGSLICWWVTRESSSSTGEVPETPPPLKEQS	failed
MIHQIESVQAGKKIYFLSDFHLGVPSDEESWKREKKIIRFLDSITPAAQAVFLLGDIFDFWFEYKHVIPKGFARLQGKIAQLTDSGIPVYLYTGNHDLWMFGYLEKELGVTVFHKPIDWEIAGKKFLIGHGDGLGPGDFVYKCTKKVFVNPFFQWVFKMTPPAIGMGIAKFWSGKSRQHNTDDRFFEEKEFLWQYCKEQNVLKHRSYYIFGHRHMPLDLPVGDSARYVNIGDWIKFDTFAEFDGNELKLISWKETSEPYSL	failed
MIHRRCVGGRRNHGGRVAQGSSRSRLPQQGTPVTMSSTSSTPPWNVQRLPGADGRVFLVTGGNAGIGYFVAEQLSATGATVVLGSRNPAKAEAATASIRARVPGSRVRAVRLDLADLSSLETAVESLEVERLDAVVHNAGVALDDPPREETGDGHELMFGTNHLGHFALTQWLMPLLSAAPAARVVTMGSFAAKSERLDLDDLQSRKDYQPKRTYGRSKLAQMYFGVELDRRLRAAGSTVASVVVHPGGALDSLTPSRPPVHVRSTGARLSAAPAALLLQGKHAGAWPAVRAVLDPAVRGGQLWGPRVFGLRGEPRREPVWDHLADPSVAARLWDASCDLMGTDLSTISG	failed
MIIDEKRVQEIKNGETSLGIEFGSTRIKAVLIANDFSILASGSFEWETSLENGVWTYSIDEIWKGLQYSYQKLFAEVKEKYGVVLSKIGSIGFSAMMHGYMAFDNKGELLVPFRTWRNTMTEEAAKKLTDLFKFNIPERWSIAHLYQAILRNEPHVEKIDFLTTLAGYIHWQLTGEKVLGIGDASGMFPIDTQTHNYDKNMLETFKNLPEVKKHSLDLEKLLPKVLLAGENAGVLTLEGAKKLDVSGNLQPGIPLCPPEGDAGTGMVATNSVAPRTGNVSAGTSIFAMVVLEKPLNRVHPEIDIVTTPSGDLVAMVHANNGCSDLEAWVNIFQQFTEAINVDMRKDLLYMALYTQAFQGDPDCGGVLAYNYFAGENITGVSEGRPMVVRKAKSNFNLPNFMRAHLFTSLGALKIGMDILLKDEAVKLDKLLGHGGLFKTPIVGQAAVAGAVNAPVSVMETAGEGGAWGIALLASYLRSKENDSTLPEFLSKNVFAGYVAEEVQPDPKDVKGFEEFIERYKKGIAIEQAAVEHLILEHHHHHH	failed
MIIERLVGNLRDLNPLDFSVDHVDLEWFETRKKIARFKTRQGKDIAIRLKDAPKLGLSQGDILFKEEKEIIAVNILDSEVIHIQAKSVAEVAKICYEIGNRHAALYYGESQFEFKTPFEKPTLALLEKLGVQNRVLSSKLDSKERLTVSMPHSEPNFKVSLASDFKVVVK	not failed
MIIETERLLLRPFNEQDVDALYLMNSNPAMLKYIPTAPFTDREQARELFHNVILQDYQQRGFGRWAVEHKADNRVIGFCGPKFIPEFNEVEIGYRYFPEYWGKGIGTEAAEAALSVFPQFGIKQTIALILEGNLGSETVAKRVGMYWREHSEFMGHKINVYAKIL	failed
MIIHTLHRYILRNLLVGLAVGSVALIVLIWLINSLKFLDWFVNKGLSVATFLRLTLLLMPGFLTVFIPIALFAVVLFTYNRLAADRELIVMRAAGMGPWQLARPALALCAVLTGVGYWLTLSVVPAMEGAFEAIKYEVRGEVSSLVIKEGQFNQMKDGLIVYAGERAKDGRLIDLMIHDTTGKTSDLTVMAESGALVREGEGARILLINGNRQERNRQTGKVNFLYFDSYAVDLGGKAASTEMRFREERERPLSELISLKAGDRIDPDYPFTYEERHIRRMRMEAHLRLLRPLAHIGFLLIGLAAVLTGEFDRRGGNKRVILAVALVVLFQAGSLGAATVAKKSLDGLLLLDLMTLLPILVGWIWLVWPSERWGRRRLAPRRGRTAAPALGGGAGR	failed
MIIRIVQNIQRINKEGNAPLYISFYLGKEKVVIPCKLSVPTTKFDSKTGMLRGTNKEAKDINLIIERLKAKVNDILVKHRLKNLTLNKEAFMREYNNPSDFKSFHDFVASYMKTYSRRLEIGTFRHHKSCMRKFKEYCEGLQFHELTEDFLRDYLIYMKKTLCNADSTAQRNLSTIKIYVSAAIKKGYMENDPFKDFGVKRIKSNIDYLTEEELIKFISLYYDRRLPERLERTLGFFLFMCFTSLHISDARHVCLEQINNGILTYYRIKNRNCKPEAIKIPLSIPAFKIIEELQGKRKEGH	failed
MIIRQGFKFRLEASDTQGARLRVLCGHARFVWNQALAKCHEAADAEGEYVPRYETMAKWVTAWKREPDTEWLKEAYTDNLQQKLKDLDTGWQRYFKKVEGAQRPRFKKKGKSRDSVRFVNFQKYCKIDNRRVKLPAGLGWVRFRKSREIVGAIKNCTVGFEGGRWFISFQTEREVSEPAHPSASMIGVDMGVARFLTLSDGTFIEPVSAFKVNQGNLARAQRALARKVKFSANWQKQKAKINRLHSRIANLRRDTLHKASTQISNNHAMIVIEDLKVGNMSRSAKGDVDNPGVNVKAKSGLNRSILDQGWYEFRRQLEYKQAFRGGGVLAVPAHHTSQTCPECQHVSPDNRTSQARFECVKCGFKENADLVGAINIQARGHRVLACGEFGLPDSVKQEPVRNREEVAPSAAHAALGIPHRRC	failed
MIITKNISLPELYQEWLDLKIMPSNRSDVTKKKYLSRKVTLEKLFGDKPISQIRPSEYQRIMNNYGQRVSRNFLGRLNTGVKQSLQMAIADKVMIEDFTQNVELFSTVKLEHHHHHH	not failed
MIIYDQHVHTSFSFDSNEKMEDYMKLAGQDFVSTEHLEFNNPEVQNHDSIPDYTKYVAEIERLKKATGKRVHKGIEIGMSAGQADKIKDYLAHHTFDIKLLSFHQDGTKDFGSNMVSHLDPLQVTDQYYQLMWKGINEFHDADVLAHFDYGVRRLSLTSGQFSTTAGVLLTNIFKVAIQNNLAFELNTKSMYKYHNIGLYDYAIEIYKQLGGKRYTIGSDAHDATHYEDHFRDALDMLKAHDIHHINVYRQGAMTVVPIDDIPEDL	failed
MIKEFSDPLYGFVRVGEAGLRLIDSFPFQRLRYVKQLGLAYLVFPSAQHTRFEHSLGVYHITERICESLKVKEKELVKLAGLLHDLGHPPFSHTTEVLLPRERSHEDFTERVIKETEIYEILKQDYSHEDIERLVRITLGKPEDEEEKLLSEIITGEFGSDRMDYLRRDAYFCGVSYGFFDYDRLISTLRVYENKVVVDESGLRALENFLISRYFMYVQVYFHKVVRILSIHLVEFLKKLISQEDFTDINNFLRLNDAFVISELFKRKAFREDFERIFQRKHFKTLLSTENYEKFSETKERLLEKFPQEKVRFDEVEKEVYGGNIYVLSSEGLKKAHELSPLIASLKPIKLYRIYVDRQLWEKARSELKLS	not failed
